Results as given in EP2270053A1 (U3 Pharma GmbH, dated 2011).

T1: human receptor tyrosine kinase AXL (human, UniProt P30530 26-894)
T1 construct: also called hAXL; human AXL on NIH3T3-AXL cl.7, Ratl-AXL cl.2, Hs578T, NCI-H292 and CaSki cells
T1 sequence: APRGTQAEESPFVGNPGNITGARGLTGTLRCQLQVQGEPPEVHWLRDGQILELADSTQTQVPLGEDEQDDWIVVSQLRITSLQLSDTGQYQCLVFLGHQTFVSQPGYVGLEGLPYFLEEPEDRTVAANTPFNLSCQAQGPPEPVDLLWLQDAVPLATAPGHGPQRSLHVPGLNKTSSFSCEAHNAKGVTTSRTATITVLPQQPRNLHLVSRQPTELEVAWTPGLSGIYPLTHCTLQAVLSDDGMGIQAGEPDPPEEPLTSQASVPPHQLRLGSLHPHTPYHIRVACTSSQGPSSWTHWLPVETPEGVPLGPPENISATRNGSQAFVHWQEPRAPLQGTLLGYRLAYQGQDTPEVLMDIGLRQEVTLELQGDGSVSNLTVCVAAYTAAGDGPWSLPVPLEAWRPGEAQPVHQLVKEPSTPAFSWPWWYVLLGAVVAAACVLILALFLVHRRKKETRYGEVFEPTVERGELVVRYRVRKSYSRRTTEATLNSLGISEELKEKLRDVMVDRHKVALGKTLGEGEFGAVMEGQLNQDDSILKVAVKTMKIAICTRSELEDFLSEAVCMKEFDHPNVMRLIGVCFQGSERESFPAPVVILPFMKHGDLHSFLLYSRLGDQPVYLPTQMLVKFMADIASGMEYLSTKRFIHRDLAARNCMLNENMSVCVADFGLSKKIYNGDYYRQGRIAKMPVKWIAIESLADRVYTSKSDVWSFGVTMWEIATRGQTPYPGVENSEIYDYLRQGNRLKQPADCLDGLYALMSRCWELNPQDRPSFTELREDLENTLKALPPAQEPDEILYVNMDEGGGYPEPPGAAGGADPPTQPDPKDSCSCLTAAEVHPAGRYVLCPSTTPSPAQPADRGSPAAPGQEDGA

B1: rat anti-human AXL monoclonal antibody #11B7 (antibody, rat IgG1, V domains shown)
VH: EVQLQESGPGLVKPSQSLSLTCSVTGYSITSNYWGWIRKFPGDKMEWMGYITYSGSTSYNPSLKSRISITRDTSKNQFFLQLNSVTSEDTATYYCAITTFYYWGQGVMVTVSS
VL: DIQMTQAPSSLPASLGDRVTITCRASQDIGNYLRWFQQKPGKSPRLMISGATNLAAGVPSRFSGSRSGSDYSLTISSLESEDMADYYCLQSKESPWTFGGGTKLELKR
notes: also called I11B7; rat anti-Axl antibody 11B7
B2: chimeric anti-AXL antibody ch11B7-IgG1 (antibody, V domains shown)
VH: B1 VH
VL: B1 VL
notes: Rat 11B7 variable domains on human IgG1 / human kappa; also called chm11B7; chimeric anti-AXL mAb #11B7
B3: rat anti-human AXL monoclonal antibody #11D5 (antibody, rat IgG2a, V domains shown)
VH: EVQLQESGPGLVKPSQSLSLTCSVTGYSITSNYWGWIRKFPGNKMEWIGHITNSGNTTYNPSLKSRISISRDTSRNQFFLQLNSVTTEDTATYYCAKGAFDYWGQGVMVTVSS
VL: DIQMTQSPSSMSTSLGDRVTITCRASQDIGNYLSWFQQKVGKSPRRMIYGAIKLAVGVPSRFSGSRSGSDYSLTISSLESEDMAIYYCLQYIQFPLTFGSGTKLELKR
notes: also called III11D5
B4: chimeric anti-AXL antibody ch11D5-IgG1 (antibody, V domains shown)
VH: B3 VH
VL: B3 VL
notes: also called chm11D5; human chimeric antibody (of #11D5)

The binders below were run against T1, human receptor tyrosine kinase AXL (assay: FACS Scatchard, apparent KD (KDapp) on NIH3T3 cells overexpressing human AXL).
Binder B1 has a Kd of 0.38 nM.
B2 gave a Kd of 0.6 nM.
B3 showed a Kd of 0.81 nM.
Binder B4 has a Kd of 0.4 nM.
